Test results: patent publication US20230212244A1 (IMMATICS BIOTECHNOLOGIES, published 2023)

Target: T1, HLA-A*02:01 (human)
T1 construct: MHC class I monomer made peptide-receptive by UV cleavage of a UV-sensitive ligand; also called peptide-receptive MHC molecules
Assay: UV-ligand exchange ELISA (anti-β2m), peptide exchange yield grade
Source text: Candidate peptides for T cell based therapies according to the present invention were further tested for their MHC binding capacity (affinity). The individual peptide-MHC complexes were produced by UV-ligand exchange, where a UV-sensitive peptide is cleaved upon UV-irradiation, and exchanged with the peptide of interest as analyzed. Only peptide candidates that can effectively bind and stabilize the peptide-receptive MHC molecules prevent dissociation of the MHC complexes. To determine the yield of the exchange reaction, an ELISA was performed based on the detection of the light chain (β2m) of stabilized MHC complexes. The assay was performed as generally described in Rodenko et al. (Rodenko et al., 2006).
96 well MAXISorp plates (NUNC) were coated over night with 2ug/ml streptavidin in PBS at room temperature, washed 4× and blocked for1h at 37° C. in 2% BSA containing blocking buffer. Refolded HLA-A*02:01/MLA-001 monomers served as standards, covering the range of 15-500 ng/ml. Peptide-MHC monomers of the UV-exchange reaction were diluted 100 fold in blocking buffer. Samples were incubated for 1h at 37° C., washed four times, incubated with 2 ug/ml HRP conjugated anti-β2m for 1h at 37° C., washed again and detected with TMB solution that is stopped with […]. Absorption was measured at 450 nm. Candidate peptides that show a high exchange yield (preferably higher than 50%, most preferred higher than 75 %) are generally preferred for a generation and production of antibodies or fragments thereof, and/or T cell receptors or fragments thereof, as they show sufficient avidity to the MHC molecules and prevent dissociation of the MHC complexes.

Binder	peptide exchange yield
KTLERSYLL [peptide KTLERSYLL (SEQ ID NO: 123)]	20 to 50%
FLLAEDTKV [peptide FLLAEDTKV (SEQ ID NO: 13)]	50 to 75%
KLLDVVHPA [peptide KLLDWHPA (SEQ ID NO: 131)]	20 to 50%
KLGQVLIYL [peptide KLGQVLIYL (SEQ ID NO: 112)]	20 to 50%
ILYQTVTGL [peptide ILYQTVTGL (SEQ ID NO: 119)]	20 to 50%
KMLDEILLQL [peptide KMLDEILLQL (SEQ ID NO: 164)]	≥ 75%
ILFSEDSTKLFV [peptide ILFSEDSTKLFV (SEQ ID NO: 153)]	50 to 75%
ALLNAILHSA [peptide ALLNAILHSA (SEQ ID NO: 132)]	50 to 75%
FLKNELDNV [peptide FLKNELDNV (SEQ ID NO: 161)]	50 to 75%
GVAGGSILKGV [peptide GVAGGSILKGV (SEQ ID NO: 134)]	≥ 75%
KLQEEIPVL [peptide KLQEEIPVL (SEQ ID NO: 135)]	20 to 50%
KQFEGTVEI [peptide KQFEGTVEI (SEQ ID NO: 138)]	50 to 75%
FLDKPEDVLL [peptide FLDKPEDVLL (SEQ ID NO: 14)]	20 to 50%
KLFDIFSQQV [peptide KLFDIFSQQV (SEQ ID NO: 136)]	50 to 75%
ALVQGILERV [peptide ALVQGILERV (SEQ ID NO: 12)]	50 to 75%
KLGDFGLLVEL [peptide KLGDFGLLVEL (SEQ ID NO: 125)]	≥ 75%
ILLTIKDDTIYL [peptide ILLTIKDDTIYL (SEQ ID NO: 104)]	50 to 75%
ILYDLQQNL [peptide ILYDLQQNL (SEQ ID NO: 113)]	20 to 50%
GLLDPSVFHV [peptide GLLDPSVFHV (SEQ ID NO: 158)]	50 to 75%
KLPSETIFVGC [peptide KLPSETIFVGC (SEQ ID NO: 154)]	50 to 75%
KLSDVWKEL [peptide KLSDVWKEL (SEQ ID NO: 143)]	50 to 75%
ALLGGGPYML [peptide ALLGGGPYML (SEQ ID NO: 107)]	50 to 75%
ALSDETWGL [peptide ALSDETWGL (SEQ ID NO: 146)]	20 to 50%
ALIKQLFEA (also called ZNF-002) [peptide ALIKQLFEA (SEQ ID NO: 1)]	50 to 75%
KLMDYIDEL [peptide KLMDYIDEL (SEQ ID NO: 162)]	50 to 75%
KLLEFDQLQL [peptide KLLEFDQLQL (SEQ ID NO: 160)]	50 to 75%
ALDGDQMEL [peptide ALDGDQMEL (SEQ ID NO: 109)]	20 to 50%
KLLAVIHEL (also called RAD54B-002) [peptide KLLAVIHEL (SEQ ID NO: 152)]	20 to 50%
AVIEHLERL [peptide AVIEHLERL (SEQ ID NO: 141)]	≥ 75%
GLGGSQLIDTHL [peptide GLGGSQLIDTHL (SEQ ID NO: 130)]	20 to 50%

More lines, now with the values ahead:

peptide exchange yield	Binder
50 to 75%	SLAELVPGVGGI [peptide SLAELVPGVGGI (SEQ ID NO: 108)]
20 to 50%	LVYQFVHPI [peptide LVYQFVHPI (SEQ ID NO: 116)]
50 to 75%	LLNDRIWLA [peptide LLNDRIWLA (SEQ ID NO: 144)]
50 to 75%	RLLHEVQEL [peptide RLLHEVQEL (SEQ ID NO: 163)]
50 to 75%	RLLGEEVVRV (also called RLLGEEVVRV) [peptide … (SEQ ID NO: 155)]
50 to 75%	YLFEKTFNM [peptide YLFEKTFNM (SEQ ID NO: 11)]
50 to 75%	SLFDVSHML [peptide SLFDVSHML (SEQ ID NO: 115)]
50 to 75%	LLNEILEQV [peptide LLNEILEQV (SEQ ID NO: 140)]
50 to 75%	LLADLKTMV [peptide LLADLKTMV (SEQ ID NO: 118)]
50 to 75%	RLLENMTEVV [peptide … (SEQ ID NO: 148)]
≥ 75%	SLMMTIINL [peptide SLMMTIINL (SEQ ID NO: 156)]
20 to 50%	MLDDRAYLV [peptide MLDDRAYLV (SEQ ID NO: 128)]
20 to 50%	RTFEKIEEV [peptide RTFEKIEEV (SEQ ID NO: 133)]
10 to 20%	TAVGHALVL [peptide TAVGHALVL (SEQ ID NO: 114)]
50 to 75%	RLADLEALKV [peptide RLADLEALKV (SEQ ID NO: 150)]
≥ 75%	TLTELRAFL [peptide TLTELRAFL (SEQ ID NO: 147)]
50 to 75%	YQFDKVGILTL [peptide YQFDKVGILTL (SEQ ID NO: 149)]
20 to 50%	TLQPVDNSTISL [peptide TLQPVDNSTISL (SEQ ID NO: 117)]
50 to 75%	RVLPPSALQSV [peptide RVLPPSALQSV (SEQ ID NO: 124)]

peptide exchange yield	Binder
50 to 75%	LLLEVVKQV (also called LLLEVVKQV) [peptide LLLEWKQV (SEQ ID NO: 145)]
50 to 75%	SLAPNIISQL [peptide SLAPNIISQL (SEQ ID NO: 121)]
50 to 75%	VLLNEILEQV [peptide VLLNEILEQV (SEQ ID NO: 139)]
50 to 75%	SAQGSDVSLTACKV [peptide SAQGSDVSLTACKV (SEQ ID NO: 151)]
50 to 75%	RMYNKIFAI [peptide RMYNKIFAI (SEQ ID NO: 10)]
50 to 75%	QLTEIKPLL [peptide QLTEIKPLL (SEQ ID NO: 137)]
50 to 75%	LQLDKEFQL [peptide LQLDKEFQL (SEQ ID NO: 15)]
50 to 75%	RLAELTVDEFLA [peptide RLAELTVDEFLA (SEQ ID NO: 127)]
50 to 75%	SLIERDLKL [peptide SLIERDLKL (SEQ ID NO: 157)]
20 to 50%	VLYEGVDEV [peptide VLYEGVDEV (SEQ ID NO: 120)]
50 to 75%	VLIDVLKEL [peptide VLIDVLKEL (SEQ ID NO: 129)]
20 to 50%	VLVDDDGIKVV [peptide … (SEQ ID NO: 159)]
50 to 75%	YALDLSTFL [peptide YALDLSTFL (SEQ ID NO: 105)]
50 to 75%	SLISEKILL [peptide SLISEKILL (SEQ ID NO: 106)]
50 to 75%	SLMGMVLKL [peptide SLMGMVLKL (SEQ ID NO: 122)]
50 to 75%	LLGELPRLLLL [peptide LLGELPRLLLL (SEQ ID NO: 110)]
50 to 75%	TLAKYLMEL [peptide TLAKYLMEL (SEQ ID NO: 126)]
50 to 75%	SLVQRVETI (also called ECT2-001) [peptide SLVQRVETI (SEQ ID NO: 142)]
